Data reported in patent US11357847B2, “Modified HSV gD protein and vaccine containing same” (KM Biologics Co., Ltd., priority 2017, dated 2022).

Tests used:
[1] = test system: various anti-gD2 antibodies; test: Reactivity of gD variants with anti-gD2 antibodies (competitive ELISA); assay type: binding, human; settings: for Reactivity with anti-gD2 antibody 1 / Reactivity with anti-gD2 antibody 5 / Reactivity with anti-gD2 antibody 13 / Reactivity with anti-gD2 antibody 72 / Reactivity with anti-gD2 antibody 75 / Reactivity with anti-gD2 antibody 78 / Reactivity with anti-gD2 antibody 82: immobilized gD variant
Source text: Each anti-gD2 monoclonal antibody and each gD variant were expressed using an Expi293 expression system.

HVEM = biological target: T1, HVEM (Homo sapiens, UniProt Q92956); test: Reactivity of HVEM with gD variants (competitive ELISA); assay type: binding; settings: compared to the original gD1-315; FIG. 14
T1 sequence (Q92956 39-202): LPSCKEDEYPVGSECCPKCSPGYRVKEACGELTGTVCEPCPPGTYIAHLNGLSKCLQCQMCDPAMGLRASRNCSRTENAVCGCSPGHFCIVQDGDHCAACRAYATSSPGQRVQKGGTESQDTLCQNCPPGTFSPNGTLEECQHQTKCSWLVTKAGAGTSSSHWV
Experimental: From the above discussion, it can be strongly inferred that each variant takes the structure in which FR1 is bound to the receptor binding region. The reactivity of HVEM with each variant was then measured by competitive ELISA.
HVEM can bind gD for the first time when FR1 binds to the receptor binding region and takes a characteristic hairpin structure. […] FR3-deficient gD1-275v5-55 promoted FR1 binding and further HVEM binding over other gD1-315-based variants in which FR3 was present.

HSV-2 MS strain = test: Mouse infection-prevention test of modified gD (genital herpes infection model); assay type: in vivo, BALB/c mice; parameters: key to Determination (vs gD1-315) / Determination# (vs gD1-315): ++: minimum effective dose based on the Significant difference test in three-fold common ratio relative to gD1-315(WT) of two or more doses stronger; +: those of one dose stronger; ±: those of an equivalent value
Experimental: Immunogenicity test of the modified gD antigen was performed using the wild-type gD antigen gD1-315 (WT) as a positive control and saline as a negative control. A predetermined amount of antigen was dissolved in saline for injection (saline) with MPLA (10 μg/mouse) and CpG (1 μg/mouse) and immunized to mice at a volume of 200 μL/mouse. BALB/c mice (5 weeks old, female) were used for the study and immunized subcutaneously in back at 2-week intervals for a total of 3 times (N=4 cases per group). Two weeks after the final immunization (third dose), blood was collected and serum was prepared for each individual. The prepared serum was serially diluted and assessed for neutralizing antibody-inducing activity against HSV-2 (50% plaque number-reducing activity).
An infection-prevention test in the preventive administration of modified gD antigen was performed using a mouse genital herpes infection model. Similar to the mouse immunogenicity test described above, mice were immunized with the number of N=10 cases per group. Depo-Provera was inoculated subcutaneously at 2 mg/mouse 6 days prior to viral inoculation to improve the multiplicity of infection upon viral inoculation 2 weeks after final immunization (third dose). 5×10^5 PFU/20 μL HSV-2 MS strain was inoculated transvaginally under anesthesia and observed for 21 days. Infection prevention ability was evaluated using survival time (survival rate) as index.
The infection model of the mouse genital herpes infection model was used to evaluate infection prevention ability of various modified gD in preventive administration. The number of animal cases in each group was set to n=10, and wild-type gD (gD1-315) was used as a positive control and saline was used as a negative control. The experiments were performed a total of four times (experiments 1-4) and four doses of 0.1 μg/mouse/time, 0.03 μg/mouse/time, 0.01 μg/mouse/time and 0.003 μg/mouse/time were set for all of the positive control, negative control, and subject modified gD antigen. Depo-Provera was inoculated subcutaneously at 2 mg/mouse 6 days prior to viral inoculation to improve the multiplicity of infection upon viral inoculation 2 weeks after final immunization (third dose). 5×10^5 PFU/20 HSV-2 MS strain was inoculated transvaginally under anesthesia and observed for 21 days. Infection prevention ability was evaluated using survival time (survival rate) as index. Mean values of those were plotted in the graph. A Significant difference test for the negative control group was performed by the Kaplan-Meier method, and those with a minimum effective dose based on the Significant difference test in three-fold common ratio relative to wild type gD of two or more doses stronger were determined to be “++”, those of one dose stronger were determined to be “+”, and those of an equivalent value were determined to be “±”.

[2] = Properties of produced gD variants (aggregates); assay type: physicochemical; settings: expressed and purified variant
Source text: Four gD1-275-based variants were produced. Since these were FR3-deficient variants, V231W mutations affecting FR3 were not investigated. […] Meanwhile, eight gD1-315-based variants were produced, and none of the variants were less than the original gD1-315 in both properties and expression level.

[3] = Experiment 1, 0.003 μg/head/time
[4] = Experiment 1, 0.01 μg/head/time
[5] = Experiment 1, 0.03 μg/head/time
[6] = Experiment 2, 0.003 μg/head/time
[7] = Experiment 2, 0.01 μg/head/time
[8] = Experiment 2, 0.03 μg/head/time
[9] = Experiment 3, 0.003 μg/head/time
[10] = Experiment 3, 0.01 μg/head/time
[11] = Experiment 3, 0.03 μg/head/time
[12] = Experiment 4, 0.003 μg/head/time
[13] = Experiment 4, 0.01 μg/head/time
[14] = Experiment 4, 0.03 μg/head/time
[15] = Experiment 1, minimum effective dose relative to gD1-315(WT)

Molecule | Reactivity with anti-gD2 antibody 1 [1] | Reactivity with anti-gD2 antibody 5 [1] | Reactivity with anti-gD2 antibody 13 [1] | Reactivity with anti-gD2 antibody 72 [1] | Reactivity with anti-gD2 antibody 75 [1] | Reactivity with anti-gD2 antibody 78 [1] | Reactivity with anti-gD2 antibody 82 [1] | Reactivity with HVEM (HVEM) | Mean survival time (HSV-2 MS strain; [3]) | Significant difference test (vs saline) (HSV-2 MS strain; [3]) | Mean survival time (HSV-2 MS strain; [4]) | Significant difference test (vs saline) (HSV-2 MS strain; [4]) | Mean survival time (HSV-2 MS strain; [5]) | Significant difference test (vs saline) (HSV-2 MS strain; [5]) | Mean survival time (HSV-2 MS strain; Experiment 1, 0.1 μg/head/time) | Significant difference test (vs saline) (HSV-2 MS strain; Experiment 1, 0.1 μg/head/time) | Mean survival time (HSV-2 MS strain; [12]) | Significant difference test (vs saline) (HSV-2 MS strain; [12]) | Mean survival time (HSV-2 MS strain; [13]) | Significant difference test (vs saline) (HSV-2 MS strain; [13]) | also measured
gD1-315: wild-type soluble gD ectodomain 1-315 of HSV-2 333 strain, SEQ ID NO: 1; positive control [reference compound] | + ((+): 70% or more) | + ((+): 70% or more) | + ((+): 70% or more) | + ((+): 70% or more) | + ((+): 70% or more) | + ((+): 70% or more) | + ((+): 70% or more) | little reaction | 6.5 days | N.S. | 7 days | N.S. | >21 days | *** (*** p < 0.001) | >21 days | *** (*** p < 0.001) | 8 days | N.S. | 7.5 days | N.S. | Mean survival time (HSV-2 MS strain; [6]): 7.5 days; Significant difference test (vs saline) (HSV-2 MS strain; [6]): N.S.; Mean survival time (HSV-2 MS strain; [7]): 7.5 days; Significant difference test (vs saline) (HSV-2 MS strain; [7]): N.S.; Mean survival time (HSV-2 MS strain; [8]): >14.5 days; Significant difference test (vs saline) (HSV-2 MS strain; [8]): N.S.; Mean survival time (HSV-2 MS strain; Experiment 2, 0.1 μg/head/time): >22 days; Significant difference test (vs saline) (HSV-2 MS strain; Experiment 2, 0.1 μg/head/time): *** (*** p < 0.001); Mean survival time (HSV-2 MS strain; [9]): 6 days; Significant difference test (vs saline) (HSV-2 MS strain; [9]): N.S.; Mean survival time (HSV-2 MS strain; [10]): 8 days; Significant difference test (vs saline) (HSV-2 MS strain; [10]): * (* 0.01 = < p < 0.05); Mean survival time (HSV-2 MS strain; [11]): >21 days; Significant difference test (vs saline) (HSV-2 MS strain; [11]): *** (*** p < 0.001); Mean survival time (HSV-2 MS strain; Experiment 3, 0.1 μg/head/time): >21 days; Significant difference test (vs saline) (HSV-2 MS strain; Experiment 3, 0.1 μg/head/time): *** (*** p < 0.001); Mean survival time (HSV-2 MS strain; [14]): >16.5 days; Significant difference test (vs saline) (HSV-2 MS strain; [14]): N.S.; Mean survival time (HSV-2 MS strain; Experiment 4, 0.1 μg/head/time): >21 days; Significant difference test (vs saline) (HSV-2 MS strain; Experiment 4, 0.1 μg/head/time): *** (*** p < 0.001)
gD1-275v5-55: gD1-275 with glycochains at SC-A, SC-F, linked to T cell epitope peptide DP5 (protein, left off: small tags and cut ends) KYALADPSLKMADPNRFRGKNLPVLDQLTDPPGVKRVYHIQPSLEDPFQNASIPITVYYAVLERACRSVLLHAPSEAPQIVRGASDEARKHTYNLTIAWYRMGDNCAIPITVMEYTECPYNKSLGVCPIRTQPRWSYYDSFSAVSEDNLGFLMHAPAFETAGTYLRLVKINDWTEITQFILEHRANASCKYALPLRIPPAACLTSKAYQQGVTVDSIGMLPRFIPENQRTVALYSLKIAGWHGPKPPYTSTLLPPELSDTTNATQPELVPEDPEDGPGPGIAFWVRRRAQMAPKPLRIAFWVRRRAQMAPKPLRHHHHHH | − ((−): less than 30%) | − ((−): less than 30%) | − ((−): less than 30%) | − ((−): less than 30%) | − ((−): less than 30%) | − ((−): less than 30%) | + ((+): 70% or more) | – | 13 days | *** (*** p < 0.001) | 11 days | *** (*** p < 0.001) | >21 days | *** (*** p < 0.001) | >21 days | *** (*** p < 0.001) | 8 days | N.S. | 15.5 days | N.S. | Determination (vs gD1-315) (HSV-2 MS strain; [15]): ++; Mean survival time (HSV-2 MS strain; [14]): >21 days; Significant difference test (vs saline) (HSV-2 MS strain; [14]): ** (** 0.001 = < p < 0.01); Mean survival time (HSV-2 MS strain; Experiment 4, 0.1 μg/head/time): >21 days; Significant difference test (vs saline) (HSV-2 MS strain; Experiment 4, 0.1 μg/head/time): *** (*** p < 0.001); Determination# (vs gD1-315) (HSV-2 MS strain; Experiment 4, minimum effective dose relative to gD1-315(WT)): +; Properties of the variant (aggregates) [2]: well properties
gD1-315v5: gD1-315 with glycochains at R186 (SC-A) and P50 (SC-F) (protein) KYALADPSLKMADPNRFRGKNLPVLDQLTDPPGVKRVYHIQPSLEDPFQNASIPITVYYAVLERACRSVLLHAPSEAPQIVRGASDEARKHTYNLTIAWYRMGDNCAIPITVMEYTECPYNKSLGVCPIRTQPRWSYYDSFSAVSEDNLGFLMHAPAFETAGTYLRLVKINDWTEITQFILEHRANASCKYALPLRIPPAACLTSKAYQQGVTVDSIGMLPRFIPENQRTVALYSLKIAGWHGPKPPYTSTLLPPELSDTTNATQPELVPEDPEDSALLEDPAGTVSSQIPPNWHIPSIQDVAPHHAPAAPSNPGHHHHHH | + ((+): 70% or more) | − ((−): less than 30%) | + ((+): 70% or more) | ± ((±): 30% or more and less than 70%) | − ((−): less than 30%) | − ((−): less than 30%) | + ((+): 70% or more) | little reaction | 6.5 days | N.S. | >21 days | *** (*** p < 0.001) | >21 days | *** (*** p < 0.001) | >21 days | *** (*** p < 0.001) | – | – | – | – | Relative reactivity with antibody No. 82 (gD1-315 wild-type set to 1) ([1]; FIG. 13): substantially similar reactivity; Determination (vs gD1-315) (HSV-2 MS strain; [15]): +
